Test results as given in patent US20190022241A1 (AbbVie / Abbott, published 2019).
Changes are numbered by the printed parent chain.

T1: SEZ6 N1 (amino acids 1-70) on yeast (human, UniProt Q53EL9 20-89)
T1 construct: yeast display
T1 sequence: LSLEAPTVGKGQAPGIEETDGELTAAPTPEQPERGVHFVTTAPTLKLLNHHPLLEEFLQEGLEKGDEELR

B1: SC17.56 (antibody, V domains shown)
VL: DIVMSQSPSSLAVSVGEKVTMSCKSSQSLLYSSNQKNYLAWYQQKPGQSPKLLIYWASTRESGVPDRFTGSGSGTDFTLTISSVKAEDLAVYFCQQYYNYPYTFGGGTKLEIK
V domain: QIQLVQSGPELKKPGETVKISCKASGYTFTNYGMNWVKQAPGKGLKWMAWINTYTGEPTYADDFKGRFAFSLETSASTASLQIINLKNEDTATYFCARIGDSSPSDYWGQGTTLTV
notes: murine mAb
B2: SC17.81 (antibody, V domains shown)
VH: EVQLQQSGAELVKPGASVKLSCTASGFNINDTYYHWLKQRPEQGLEWIGRIDPANVNTKYDPKFQGKATLTADTSSNTAYLQLSSLTSEDTAVYYCGRGNAYWGQGTLVTVSA
VL: B1 VL with A12T, M21L, S33T, N37I, T80A, S83N, F93Y, N99S
notes: murine mAb
B3: SC17.114 (antibody, V domains shown)
VH: EVQLQQSGPEMVKPGASVKISCKASGYTFTDYYMHWVKQSHGKSLEWIGRVNTNNGGTSYDQKFEGKATLTVDKSSSTAYMELNSLTSEDSAVYYCVIPAWFAYWGQGTLVTVSA
VL: DVVMTQSPLSLPVSLGDQASISCRSSQSLVHSNGNTYLHWYLQKPGQSPKLLIYKVSSRFSGVPDRFSGSGSGTDFTLKISRVEAEDLGVYFCSQSTHVPFTFGSGTKLEIK
notes: murine mAb
B4: SC17.9 (antibody, V domains shown)
VH: QVQLQQPGAEIVRPGASVKLSCKASGYTFTDYWMNWVKQRPGQGLEWIGAIDPSDSYTSYNPKFKGKATLTVDTSSSSAYMQLSSLTSEDSAVYFCARRGTPGKPLVYWGQGTLVTVSA
VL: DIVMSQSPSSLAVSVGEKVTMSCKSSQSLLYSSNQKNYLAWYQQKPGQSPKLLIYWASTRESGVPDRFTGSGSGTDFTLTISSVKAEDLAVYFCQQYYNYPYTFGGGTKLK
notes: murine mAb
B5: SC17.151 (antibody, V domains shown)
VH: EVQLQQSGTVLARPGASVKMSCKASGYTFTSYWMHWVKQRPGQGLEWIGAIYPGKNDTTYNQKFKGKAKLTAVTSASTLYMELSSLTNEDSAVYYCTRSGKGYFAYWGQGTLVTVSA
VL: DIVLTQFPASLAVSLGQRATIPCRASESVDSYGNSFMHWFQQKPGQPPKLLIYRASNLESEIPARFSGSGSGTDFTLTINPVEADDVATYYCQQSHEDPYTFGGGTKMEIK
notes: murine mAb
B6: SC17.120 (antibody, V domains shown)
VH: EVQLEQSGTVLARPGASVKMSCKASGYTFTSYWMHWVKQRPGQGLEWIGAFYPGNSGTYYNQKFKDKAKLTAVTSASTAYMELSSLTNEDSAVYYCSRSGSGRFAYWGQGTLVTVSA
VL: B5 VL with F7S, P22S, F40Y, L50V, E61G, G72R, A84D, D85E, H96N, M108L
notes: murine mAb
B7: SC17.199 (antibody, V domains shown)
VH: EVQLQQSGTVLARPGASVRMSCKASGYTFTSYWMHWVKQRPGQGLEWIGAIYPGNSDTSYNHKFKGKAKLTAVTSASTAYMELSSLTNEDSAVYYCTRSGTGWFAYWGQGTLVTVS
VL: B5 VL with F7S, P22S, F40Y, L50P, E61G, G72R, H96N, M108L
notes: murine mAb
B8: SC17.93 (antibody, V domains shown)
VH: QVQLQQPGAELVKPGASVMLSCKASGYTFTSYWVHWVKQRPGQGLEWIGVINPRNGRNNYNEKFKTKATLTVDKSSSTAYMQLSSPTSEDSAVYYCAREDYDGGDYAMDYWGQGTSVTVSS
VL: B1 VL with S22T, T69I, V91I, F93Y, N99R, Y102L, G106A, I112L
notes: murine mAb
B9: SC17.193 (antibody, V domains shown)
VH: QVTLKESGPGILQPSQTLSLTCSFSGFSLITYGIGVGWIRQPSGKGLEWLAHIWWNDNKYYNTALKSRLTISKDTSNNQVFLKIANVDTADTATYYCARMVYYDYDGGFAYWGQGTLVTVSA
VL: DLVLTQSPASLAVSLGQRATISCRASESVSTSGYSYMHWYQQKPGQPPKLLIYLASNLESGVPARFSGSGSGTDFTLNIHPVEEEDATTYYCQHSRELPYTFGGGTKLEIK
notes: murine mAb
B10: SC17.156 (antibody, V domains shown)
VH: QVTLKESGPGILQPSQTLSLTCSFSGFSLSTSGMGVSWIRKTSGKGLEWLAHIFWDDDKWYNPSLKSRLTISKATSSNQVFLILTSVDTADTATYYCATFYGLYFAYWGQGTTLTVSS
VL: B3 VL with L29I, H39E, S58N, F92Y, S94F, S96G, T97S, F101P, S105G
notes: murine mAb
B11: SC17.121 (antibody, V domains shown)
VH: EVQLQQSGPELMKPGASVKMSCKASGYTFTDHNIHWVKQHQGKSLEWIGEINPNTGGTGYNQKFQGKATMTVDKSSSTAYMELRSLTSEDSAVYYCVRGLYFFDYWGQGTTLTVSS
VL: QIVLTQSPAIMSASPGEKVTMTCSASSSVSYMHWYQQKSGTSPKRWIYDTSKLASGVPARFSGSGSGTSYSLTISSMETEDAATYYCQQWSNTPPTFGSVTKLEIK
notes: murine mAb
B12: SC17.191 (antibody, V domains shown)
VH: EVQLQQSGPELMKPGASVKMSCKASGYTFTDYNMHWVKQNQGKSLEWIGEINPNTGGTGYNQKFKDKATLTVDKSSSTAYMELRSLTSEDSAVYYCARIPSLRRYYFDYWGQGTTLTVSS
VL: B11 VL with S62T, T79A, N92S, T93S, S99A, V100G, I105L
notes: murine mAb
B13: SC17.102 (antibody, V domains shown)
VH: EVQLQQSGPELMKPGASVKMSCKASGDTFTDYNIHWVKQNQGKSLEWIGEVNPNIGGIGYNQKFKGKATLTVDKSSSTAYMELRSLTSEDSAVYYCAMGRWYFDVWGAGTTVTVSS
VL: B11 VL with A59P, S64R, T79A, Q89H, N92S, T93N, S99A, V100G, I105M
notes: murine mAb

The binders below were run against T1, SEZ6 N1 (amino acids 1-70) on yeast (assay: yeast display, flow cytometry;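 also: antibody binding to individual SEZ6 domains displayed on yeast, measured by flow cytometry, antibody at 50 nM purified or hybridoma supernatant diluted 1:2, 90 min on ice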).

Binder	binding result
B1	binds
B2	binds
B3	binds
B4	binds
B5	binds
B6	binds
B7	binds

These binders were tested against T2, SEZ6 Sushi Domain 4 (amino acids 750-813) on yeast (human, UniProt Q53EL9 769-832) (assay: yeast display, flow cytometry;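 also: antibody binding to individual SEZ6 domains displayed on yeast, measured by flow cytometry, antibody at 50 nM purified or hybridoma supernatant diluted 1:2, 90 min on ice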).
T2 construct: yeast display

Binder	binding result
B8	binds
B9	binds
B10	binds
B11	binds
B12	binds
B13	binds
